Results reported in patent US20240092857A1.

Tests used:
[1] = test system: DLK1 extracellular domain (ECD), soluble, exogenously added
TGFBR1 = TGFBR1 (UniProt P36897); test: STED microscopy of KG1a-DLK1-GFP cells, 3691 condensates over 10 images
Presenilin-1 = Presenilin-1 (UniProt P49768); test: STED microscopy of KG1a-DLK1-GFP cells, 1864 condensates over 10 images

Chain of UniProt P36897 (P36897 34-503 limits assumed): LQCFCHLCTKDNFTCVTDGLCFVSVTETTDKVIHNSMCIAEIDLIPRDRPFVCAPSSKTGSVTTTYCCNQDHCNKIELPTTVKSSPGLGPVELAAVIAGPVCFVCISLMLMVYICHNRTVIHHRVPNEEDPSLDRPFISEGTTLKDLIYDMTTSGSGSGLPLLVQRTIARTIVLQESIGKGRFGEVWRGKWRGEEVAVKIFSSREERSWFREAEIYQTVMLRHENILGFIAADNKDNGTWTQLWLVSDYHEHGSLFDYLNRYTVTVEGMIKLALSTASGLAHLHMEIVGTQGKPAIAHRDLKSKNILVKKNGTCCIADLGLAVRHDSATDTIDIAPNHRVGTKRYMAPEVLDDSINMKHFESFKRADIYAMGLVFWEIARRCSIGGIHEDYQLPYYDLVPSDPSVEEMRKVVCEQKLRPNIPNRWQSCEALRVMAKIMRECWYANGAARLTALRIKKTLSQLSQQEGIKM

Row | percent of DLK1 in the PM that overlaps with TGFBR1 (co-localization) (TGFBR1) [%] | percent of TGFBR1 that overlaps with DLK1 (co-localization) (TGFBR1) [%] | percent of DLK1 in the PM that overlaps with PSEN1 (co-localization) (Presenilin-1) [%] | percent of PSEN1 that overlaps with DLK1 (co-localization) (Presenilin-1) [%] | Substance | Notch receptor cleavage, western blot of Notch1 cleaved at Valine 1744 (FIG. 14B) [1]
1 |  |  |  |  | Presenilin-1 | reduces Notch receptor cleavage
2 | 75 | 75 | 80 | 75 | full-length DLK1 isoform with a C-terminal fusion to GFP, expressed in KG1a cells (from UniProt P80370 24-383) | 
